# Assays:
# [1] = biological target: T1, TLR9 (Mus musculus, UniProt Q9EQU3); experiment: CpG-induced MIP-2 production in RAW264.7 cells, ELISA; type: cell-based, murine; conditions: peptide 5 or 20 μM 1 h before 1 μg/ml CpG, supernatant 24 h
# T1 construct: using the murine macrophage cell line RAW264.7; endogenous in cells; host or cells: RAW264.7
# T1 sequence (Q9EQU3 26-1032): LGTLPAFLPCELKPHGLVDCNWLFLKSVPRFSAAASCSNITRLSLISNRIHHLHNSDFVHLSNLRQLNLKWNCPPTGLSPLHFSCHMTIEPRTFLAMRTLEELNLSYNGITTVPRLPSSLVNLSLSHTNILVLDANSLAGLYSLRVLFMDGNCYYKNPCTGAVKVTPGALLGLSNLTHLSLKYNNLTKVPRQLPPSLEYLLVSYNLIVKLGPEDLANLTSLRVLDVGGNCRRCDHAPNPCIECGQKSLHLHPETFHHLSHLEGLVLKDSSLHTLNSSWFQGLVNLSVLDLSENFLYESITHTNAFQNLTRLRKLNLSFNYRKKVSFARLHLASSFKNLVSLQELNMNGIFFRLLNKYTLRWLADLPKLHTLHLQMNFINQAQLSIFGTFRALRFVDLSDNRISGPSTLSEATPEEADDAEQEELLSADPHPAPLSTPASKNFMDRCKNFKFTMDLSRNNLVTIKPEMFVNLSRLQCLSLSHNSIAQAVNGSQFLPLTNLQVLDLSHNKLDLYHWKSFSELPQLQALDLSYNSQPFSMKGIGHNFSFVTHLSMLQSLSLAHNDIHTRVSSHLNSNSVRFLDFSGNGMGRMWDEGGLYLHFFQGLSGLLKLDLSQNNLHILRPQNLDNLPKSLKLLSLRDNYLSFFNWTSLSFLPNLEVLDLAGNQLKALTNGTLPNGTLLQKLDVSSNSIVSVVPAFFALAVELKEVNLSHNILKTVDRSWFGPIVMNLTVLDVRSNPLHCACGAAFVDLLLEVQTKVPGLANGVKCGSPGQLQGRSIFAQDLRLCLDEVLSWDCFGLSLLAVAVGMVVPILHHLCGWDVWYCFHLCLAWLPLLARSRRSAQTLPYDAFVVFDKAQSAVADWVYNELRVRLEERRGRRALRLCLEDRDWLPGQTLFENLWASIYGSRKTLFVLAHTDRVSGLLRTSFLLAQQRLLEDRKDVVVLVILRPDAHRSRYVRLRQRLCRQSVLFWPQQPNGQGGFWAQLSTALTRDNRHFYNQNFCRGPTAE
# Experimental: FIGS. 1A and B are bar charts showing the effect of peptides derived from A46 on CpG-induced MIP-2 production murine RAW264.7 cells. Cells were seeded in 96 well plates (1.5×10^5 cells/nil) at least 24 hours before treatment. A46 peptides were added to the cells at a concentration of 5 or 20 μM 1 hour before stimulating with 1 μg/ml CpG. Supernatants were collected 24 hours after stimulation and assayed for MIP2 by ELISA. No peptides were added into the control wells (black bars). (A) peptides A461-A467 (SEQ ID NO. 17 to 23). (B) peptides A468-A4614 (SEQ ID NO. 24 to 30) (excluding A4612 SEQ ID NO. 28). Data is representative of at least two experiments each performed in triplicate and is expressed as mean±s.d;
# Cytokine and chemokine production from cells or mouse serum was measured by ELISA using Duoset kits from R&D systems, according to the manufacturer's instructions.
# These peptides were initially screened for effects on TLR-induced gene induction in vitro using the murine macrophage cell line RAW264.7. Unmethylated CpG dinucleotides of bacterial DNA sequences are detected by TLR9, which leads to production of pro-inflammatory cytokines and chemokines, including TNFα via a MyD88-dependent pathway (Latz et al, 2004). […] The effect of the peptides on two TLR9-induced cytokines, namely TNFα and MIP-2, was measured by ELISA. […]
# [2] = biological target: T2, TLR7 (Mus musculus, UniProt P58681); experiment: murine TLR7 response; type: cell-based
# T2 sequence (P58681 27-1050): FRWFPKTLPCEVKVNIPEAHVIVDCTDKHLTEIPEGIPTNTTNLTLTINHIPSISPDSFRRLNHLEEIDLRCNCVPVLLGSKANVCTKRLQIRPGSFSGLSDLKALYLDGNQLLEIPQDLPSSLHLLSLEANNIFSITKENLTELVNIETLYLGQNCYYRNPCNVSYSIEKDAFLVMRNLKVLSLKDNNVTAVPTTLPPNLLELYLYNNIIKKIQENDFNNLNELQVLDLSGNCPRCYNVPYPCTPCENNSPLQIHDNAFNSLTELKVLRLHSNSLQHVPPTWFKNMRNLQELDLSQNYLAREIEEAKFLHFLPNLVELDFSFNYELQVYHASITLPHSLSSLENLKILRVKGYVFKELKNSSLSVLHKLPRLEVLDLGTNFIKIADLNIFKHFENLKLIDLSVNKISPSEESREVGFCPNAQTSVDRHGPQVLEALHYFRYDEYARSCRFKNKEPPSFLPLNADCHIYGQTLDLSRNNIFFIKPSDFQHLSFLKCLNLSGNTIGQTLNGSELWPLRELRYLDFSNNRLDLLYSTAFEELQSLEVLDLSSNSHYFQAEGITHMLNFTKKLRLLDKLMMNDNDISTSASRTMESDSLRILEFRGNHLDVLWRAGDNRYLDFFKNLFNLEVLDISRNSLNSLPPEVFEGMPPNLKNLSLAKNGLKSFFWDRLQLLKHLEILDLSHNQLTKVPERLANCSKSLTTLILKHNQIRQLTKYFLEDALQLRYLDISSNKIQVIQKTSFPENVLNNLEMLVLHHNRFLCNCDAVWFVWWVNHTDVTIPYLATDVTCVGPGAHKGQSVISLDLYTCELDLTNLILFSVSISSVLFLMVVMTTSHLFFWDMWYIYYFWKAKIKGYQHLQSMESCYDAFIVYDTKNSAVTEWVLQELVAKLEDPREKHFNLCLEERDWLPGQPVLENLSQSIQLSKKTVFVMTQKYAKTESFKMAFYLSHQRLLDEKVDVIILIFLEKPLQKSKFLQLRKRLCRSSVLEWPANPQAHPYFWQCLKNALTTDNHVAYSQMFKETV
sequence,measurement,setting,value
KYSFKLILAEYRRRRRRRRR [Peptide A464],inhibition of CpG-induced MIP-2 secretion,[1],little or no effect
same,inhibition of murine TLR7,[2],insensitive

# — patent publication US8722052B2, “Vaccinia virus protein A46 peptide and use thereof” (priority 2008, dated 2014)
